# Source: article PMC12508434
# Where a chain is given by its changes, count along the chain named.
# B1: P1-CN crRNA + P1 target dsDNA (mixed)
# RNA: UAAUUUCUACUAAGUGUAGAUAACCUGAUCAAGAUACCCAA
# DNA 1: CTTAGAGTTCTTTAAACCTGATCAAGATACCCAACCAAAC
# DNA 2: TGTTGTTTGGTTGGGTATCTTGATCAGGTTTAAAGAACTCTAAG
# B2: P1-CN crRNA (structured_RNA)
# RNA: B1 RNA
# B3: P1-F2 crRNA (structured_RNA)
# RNA: B1 RNA with U1G, U5G
# B4: P1-FL1 crRNA (structured_RNA)
# RNA: B1 RNA with U1C, U5G, A12C, U15C
# B5: P1-L2 crRNA (structured_RNA)
# RNA: B1 RNA with A12C, U15C
# B6: P1-L1 crRNA (structured_RNA)
# RNA: B1 RNA with U11A, G14A, U15C
# B7: P1-F1 crRNA (structured_RNA)
# RNA: B1 RNA with U1C, U5G
# B8: P1-FL2 crRNA (structured_RNA)
# RNA: B1 RNA with U1G, U5G, A12C, U15C
# Molecular target: dCas12a (DNase-dead; LbCas12a implied) (Lachnospiraceae bacterium? (only 'Lb' …, UniProt A0A5S8WF58 1-1228, D832A)
# Assay: EMSA
row,Binder,binding result
1,B1,binds

# Molecular target: LbCas12a (Lachnospiraceae bacterium? (only 'Lb' …, UniProt A0A5S8WF58 1-1228))
# Assay: SPR
row,Binder,binding result
1,B2,binds
2,B3,binds
3,B4,binds
4,B5,binds
5,B6,binds
6,B7,binds
7,B8,binds
